Measured values as given in FireProtDB.
Several values for one entry are separate records, joined by “and”; a condition that tells them apart may be missing. Identical values can stand only once.

Conditions: whole UniProt chain shown; for Tm: Thermal
[1] = Thermus thermophilus (strain ATCC 27634 / DSM 579 / HB8), pH 7.5, 25 °C, GdnHCl, Fluorescence, tris-HCl 20 mM, reversible: yes
[2] = Thermus thermophilus, pH 7, 25 °C, GdnHCl, CD, Potassium phosphate 20 mM, potassium chloride 50 mM
[3] = Vibrio harveyi, pH 7, 18 °C, Urea, CD, phosphate 50 mM, reversible: yes

B1: Protein GrpE wild type, Q56236 (protein)
chain: MEERNHENTLEKDLEAVGQEAQALEERLKAAEEELKGLKDKYLRLLADFDNYRKRMEEELKAREREGVLKALRALLPVLDDLDRALEFAEASPESIRQGVRAIRDGFFRILAGLGVEEVPGEGEAFDPRYHEAVGLLPGEPGKVAKVFQRGFRMGEALVRPARVAVGEEKREEADLE
In the case of B1, the unfolding free energy (Thermus thermophilus (strain ATCC 27634 / DSM 579 / HB8), pH 7.5, 25 °C, GdnHCl, CD, Tris-HCl 20 mM, KCl 100 mM, reversible: yes) is reported as 4.13 kcal/mol and the Tm (Thermus thermophilus (strain ATCC 27634 / DSM 579 / HB8), pH 7.5, DSC, Hepes-NaOH 20 mM, KCl 100 mM, reversible: yes) is reported as 106 °C.

B2: Phosphoglycerate kinase wild type, P09403 (protein)
chain: MRTLLDLDPKGKRVLVRVDYNVPVQDGKVQDETRILESLPTLRHLLAGGASLVLLSHLGRPKGPDPKYSLAPVGEALRAHLPEARFAPFPPGSEEARREAEALRPGEVLLLENVRFEPGEEKNDPELSARYARLGEAFVLDAFGSAHRAHASVVGVARLLPAYAGFLMEKEVRALSRLLKDPERPYAVVLGGAKVSDKIGVIESLLPRIDRLLIGGAMAFTFLKALGGEVGRSLVEEDRLDLAKDLLGRAEALGVRVYLPEDVVAAERIEAGVETRVFPARAIPVPYMGLDIGPKTREAFARALEGARTVFWNGPMGVFEVPPFDEGTLAVGQAIAALEGAFTVVGGGDSVAAVNRLGLKERFGHVSTGGGASLEFLEKGTLPGLEVLEG
For B2, the denaturant m value [1] was 2.7 kcal/mol/M, the “denaturant midpoint (higher = more stable)” value [1] was 2.34 M and the unfolding free energy [1] was 6.32 kcal/mol.

B3: Triosephosphate isomerase, glycosomal wild type, P04789 (protein)
chain: MSKPQPIAAANWKCNGSQQSLSELIDLFNSTSINHDVQCVVASTFVHLAMTKERLSHPKFVIAAQNAIAKSGAFTGEVSLPILKDFGVNWIVLGHSERRAYYGETNEIVADKVAAAVASGFMVIACIGETLQERESGRTAVVVLTQIAAIAKKLKKADWAKVVIAYEPVWAIGTGKVATPQQAQEAHALIRSWVSSKIGADVAGELRILYGGSVNGKNARTLYQQRDVNGFLVGGASLKPEFVDIIKATQ
With B3 the Tm (Trypanosoma brucei brucei, pH 7, CD, 3-(N-morpholino)propanesulfonic acid/dithiothreitol 20 mM/0.02 mM, EDTA 0.02 mM) was 52.2 °C, the Tm (Trypanosoma brucei brucei, pH 7.4, CD, MOPS 20 mM, EDTA 1 mM, reversible: no) was 51.4 °C and the Tm (Trypanosoma brucei brucei, pH 7.5, CD, TEA 0.9 mM, NaCl 1.2 mM) was 44 °C and 48 °C.

B4: Small ribosomal subunit protein bS6 wild type, P23370 (protein)
chain: MRRYEVNIVLNPNLDQSQLALEKEIIQRALENYGARVEKVEELGLRRLAYPIAKDPQGYFLWYQVEMPEDRVNDLARELRIRDNVRRVMVVKSQEPFLANA
B4 showed a denaturant m value [2] of 2.5 kcal/mol/M and an unfolding free energy [2] of 8.5 kcal/mol.

B5: Alkanal monooxygenase alpha chain wild type, P07740 (protein)
chain: MKFGNFLLTYQPPELSQTEVMKRLVNLGKASEGCGFDTVWLLEHHFTEFGLLGNPYVAAAHLLGATETLNVGTAAIVLPTAHPVRQAEDVNLLDQMSKGRFRFGICRGLYDKDFRVFGTDMDNSRALMDCWYDLMKEGFNEGYIAADNEHIKFPKIQLNPSAYTQGGAPVYVVAESASTTEWAAERGLPMILSWIINTHEKKAQLDLYNEVATEHGYDVTKIDHCLSYITSVDHDSNRAKDICRNFLGHWYDSYVNATKIFDDSDQTKGYDFNKGQWRDFVLKGHKDTNRRIDYSYEINPVGTPEECIAIIQQDIDATGIDNICCGFEANGSEEEIIASMKLFQSDVMPYLKEKQ
In the case of B5, the denaturant m value [3] is reported as 2.26 kcal/mol/M and 2.18 kcal/mol/M, the unfolding free energy [3] is reported as 2.36 kcal/mol and 6.04 kcal/mol and the denaturant m value (Vibrio harveyi, pH 7, 18 °C, Urea, Fluorescence, NaH2PO4-K2HPO4 50 mM, transition: 3, reversible: yes) is reported as 2.38 kcal/mol/M and 3.99 kcal/mol/M. The denaturant m value (Vibrio harveyi, pH 7, 18 °C, Urea, Fluorescence, phosphate 50 mM, reversible: yes) was 2.47 kcal/mol/M.
